In publication doi:10.1101/098400 (bioRxiv, 2017):

Molecular target: the molecule itself
Assay: in vitro assembly seen by negative-stain transmission electron microscopy

B1: Rous Sarcoma Virus capsid protein (RSV CA), wild type (natural protein, Rous Sarcoma Virus (strain Prague C), UniProt P03322 240-476, looked up)
chain: PVVIKTEGPAWTPLEPKLITRLADTVRTKGLRSPITMAEVEALMSSPLLPHDVTNLMRVILGPAPYALWMDAWGVQLQTVIAAATRDPRHPANGQGRGERTNLNRLKGLADGMVGNPQGQAALLRPGELVAITASALQAFREVARLAEPAGPWADIMQGPSESFVDFANRLIKAVEGSDLPPSARAPVIIDCFRQKSQPDIQQLIRTAPSTLTTPGEIIKYVLDRQKTAPLTDQGIA
B1 was tested, and the “stoichiometry N” value was 6.
